The record followed here is paper PMC8894971, “ENB1 encodes a cellulose synthase 5 that directs synthesis of cell wall ingrowths in maize basal endosperm transfer cells”.

Data set [1] concerns the target T1, MRP1 (His-TF-MRP1) (Zea mays, UniProt K7V5I7 1-241).
T1 sequence: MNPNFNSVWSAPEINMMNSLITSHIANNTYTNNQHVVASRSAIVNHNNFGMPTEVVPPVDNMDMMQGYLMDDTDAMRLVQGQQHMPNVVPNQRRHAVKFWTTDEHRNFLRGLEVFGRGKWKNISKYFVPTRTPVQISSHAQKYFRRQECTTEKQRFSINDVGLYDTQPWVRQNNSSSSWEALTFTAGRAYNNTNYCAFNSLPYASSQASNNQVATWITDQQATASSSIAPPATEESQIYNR
Nature of the data set: EMSA; LightShift EMSA kit standard protocol, ~200 ng protein, 5 ng biotin probe, 6% native polyacrylamide gel; buffer, salt, pH and temperature not stated. The settings on record: protein: recombinant; tags: N-terminal His-TF (trigger factor, pCold-TF); blunt (duplex implied).

Data set [2] addresses T1, MRP1 (His-TF-MRP1). Nature of the data set: EMSA; labeled Mu probe; no shifted band; LightShift EMSA kit standard protocol, ~200 ng protein, 5 ng biotin probe, 6% native polyacrylamide gel; buffer, salt, pH and temperature not stated. Conditions: protein: recombinant; tags: N-terminal His-TF (trigger factor, pCold-TF); blunt (duplex implied).

B1: ENB1 promoter WT probe (dsDNA)
DNA 1: CTACTTATTATCTACATATCTATGTGACTA
DNA 2: TAGTCACATAGATATGTAGATAATAAGTAG
As for B1, the binding result in data set [1] is reported as “binds”.

B2: ENB1 promoter Mu probe (dsDNA)
DNA 1: CTACTTATGAGCGACAGAGCGATGTGACTA
DNA 2: TAGTCACATCGCTCTGTCGCTCATAAGTAG
As to B2, the binding result in data set [2] was “no binding”.
